Experimental findings from publication doi:10.1101/2024.12.01.626218, “TTF2 drives mitotic replisome disassembly and MiDAS by coupling the TRAIP ubiquitin ligase to Polε” (bioRxiv, 2024) are described below.

The target in data set [1] is T1, His-SUMO-TTF2 1-100 (tandem zinc fingers) (Mus musculus, UniProt Q5NC05 1-100).
T1 sequence: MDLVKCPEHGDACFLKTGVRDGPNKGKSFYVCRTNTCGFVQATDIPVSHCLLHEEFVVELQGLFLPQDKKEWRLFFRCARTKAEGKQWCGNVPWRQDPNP
Briefly: EMSA; 10 nM DNA; EMSA buffer (25 mM buffer component; full composition not in the material), 10 nM Cy5-DNA, 10 µl, room temperature, 10 min; Novex TBE 4-12% gel, 150 V, 40 min. The note with it: protein: recombinant, tags: N-terminal 14His-SUMO (yeast Smt3).

Data set [2] concerns the molecule itself. The data set is described as follows: mass photometry; Refeyn OneMP; TRAIP diluted to 6.4 ng/µl (~50 nM of TRAIP dimer); 25 mM Hepes-KOH pH 7.9, 150 mM NaCl, 10 mM MgOAc, 1 mM DTT.
In data set [3] the target is T2, HisSUMO-TTF2 1-100 (mouse, UniProt Q5NC05 1-100).
T2 construct: mouse TTF2 residues 1-100 (tandem Zinc fingers); also called His-SUMO-tagged TTF2; recombinant form of TTF2 1-100; source: E. coli Rosetta (DE3) pLysS, purified (Ni-NTA, Superdex 200); not shown: 14His, N-terminal, kept; Smt3 (budding yeast SUMO), N-terminal, kept
T2 sequence (looked up): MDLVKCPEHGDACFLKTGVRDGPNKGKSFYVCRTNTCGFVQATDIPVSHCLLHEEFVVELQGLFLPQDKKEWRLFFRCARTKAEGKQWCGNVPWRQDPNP
Briefly: ITC; MicroCal PEAQ-ITC; 20 µM HisSUMO-TTF2 1-100 in the cell, 200 µM TRAIP peptide injected (19 x 2 µl); 50 mM Tris-HCl pH 7.5, 100 mM NaCl, 0.5 mM TCEP. As to conditions: both partners purified. A general note: ITC needs no label: the signal is the heat of the interaction.

Data set [4] addresses T3, HisSUMO-TTF2 1-100 (mouse, UniProt Q5NC05 1-100).
T3 chain: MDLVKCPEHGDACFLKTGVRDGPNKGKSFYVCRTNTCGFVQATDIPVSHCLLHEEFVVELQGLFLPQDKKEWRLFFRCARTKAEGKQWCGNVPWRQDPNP
Briefly: ITC; phosphorylated T325.

In general, stoichiometry N refers to a count of units in the complex or per binding partner. As a reminder, the Kd is a measure of binding affinity in units of concentration. Low readings indicate higher affinity, high ones lower affinity.

Where no end group is shown, it is not given here. [ ]: non-standard residue; d: D form. pT = C[C@@H](OP(=O)(O)O)[C@H](N)C(=O)O

B1: YX011 80-nt ssDNA (ssDNA)
DNA: CAGTGCCAAGCTTGCATGCCTGCAGGTCGACTCTAGAGGATCCCCGGGTACCGAGCTCGAATTCGTAATCATGGTCATAG
Consider B1, for which, in data set [1] (label: 5'-Cy5), the binding result is on record as “no binding”.

B2: YX011/YX012 80-bp dsDNA (dsDNA)
DNA 1: CAGTGCCAAGCTTGCATGCCTGCAGGTCGACTCTAGAGGATCCCCGGGTACCGAGCTCGAATTCGTAATCATGGTCATAG
DNA 2: CTATGACCATGATTACGAATTCGAGCTCGGTACCCGGGGATCCTCTAGAGTCGACCTGCAGGCATGCAAGCTTGGCACTG
Take B2: the binding result in data set [1] (label: 5'-Cy5 on strand 1, blunt) is listed as “no binding”.

B3: recombinant mouse TRAIP (enzyme, UniProt Q8VIG6-1 1-470, looked up)
chain: MPIRALCTICSDFFDHSRDVAAIHCGHTFHLQCLIQWFETAPSRTCPQCRIQVGKKTIINKLFFDLAQEEENVLDAEFLKNELDSVKAQLSQKDREKRDSQAIIDTLRDTLEERNATVESLQNALNKAEMLCSTLKKQMKFLEQRQDETKQAREEAHRLKCKMKTMEQIELLLQSQRSEVEEMIRDMGVGQSAVEQLAVYCVSLKKEYENLKEARKATGELADRLKKDLVSSRSKLKTLNTELDQAKLELRSAQKDLQSADQEITSLRKKLMILQGTLSLPPATNETVSRLVFESPAPVEMMNPRLHQPPFGDEIDLNTTFDVNTPPTQTSGSQHCLPKKLCLERARSPMQNVLKKVHKVSKPESQLSLGGQRCVGELDEELAGAFPLFIRNAVLGQKQPNRTTAESRCSTDVVRIGFDGLGGRTKFIQPRDTTIIRPVPVKSKAKSKQKVRIKTVSSASQPKLDTFLCQ
notes: Mw of the monomer 53.1 kDa; the tag was cut off with Ulp1; also called purified TRAIP; TRAIP ubiquitin ligase; source: E. coli Rosetta (DE3) pLysS, purified (Ni-NTA, HiTrapQ, HiTrap Heparin, Superose 6); not shown: 14His-Smt3 (budding yeast SUMO), N-terminal, cleaved
On to B3, for which the “stoichiometry N” value in data set [2] worked out at 2.

B4: peptide corresponding to mouse TRAIP 313-329 with phosphorylated T325 (peptide)
peptide: FGDEIDLNTTFDVN[pT]PPTQ
modifications: not fully specified; printed as FGDEIDLNTTFDVN**T**PPTQ
notes: mouse TRAIP; the CDK consensus (T followed by P) points to the 15th letter; also called phosphorylated peptide; source: synthetic peptide (Peptide & Elephants)
For B4, in the data set with HisSUMO-TTF2 1-100 [3], the binding result is “binds”. In addition, the affinity with HisSUMO-TTF2 1-100 [4], expressed as Kd, was 2300 nM.
